Test results: a protein production outcome set (Wang et al. 2014)

Test: label from the status in PepcDB records
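Further: failed if final PepcDB status was selected cloned or expressed and not failed if soluble or beyond.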

| Sequence | protein production |
| --- | --- |
| LIKRMNAEELLHEKIEFNDLLLRSVENPIFWRDSRGFLIDCNAQFTRLLGISKDRLVGRSVYDICGDLHTPVLEGLLTKVLQGEGEQYDIDFKNHEGETLSFLVQASEYHDKSEKVAGVVTILFDMT | failed |
| MAKRIFLFILTNILVLTTIGIVLSVLSSVTGVGTYFTADGGIDPMALLVFSLVVGFVGSFTSLAISRWMAKTMMGVRVLNPKKHSLSYEEQQLVDRVHRLSRSAGLTKMPEVGIYRSPEVNAFATGPSKRRSLVAVSSGLLEQMDDAAVEGVLAHEVAHITNGDMVTMTLLQGIVNTFVVFLSRIAAWIASRFVKEDLAPIVHFIAMIIFQIVFSILGSLVVFAYSRHREFHADRGGADLAGKDKMIHALRTLKSYSSRILEDDQTAVQTLKINGKKRSSLFSTHPDLDERIRRLEAK | failed |
| APEWTEEDLSQLTRSMVKFPGGTPGRWEKIAHELGRSVTDVTTKAKQLKDSVTCSPGMV | not failed |
| MINQATSPAAPISLTTKGLRWANLAFMLYLLLLAVAMVGSGFKWATGDQAKVLFEFASHPIAGLMIGLVATALIQSSSTVTSIIVGLVAGGLPVETAIPMVMGANIGTTVTNTLVSLGHMRCKEEFRRAFASATIHDFFNLLAVLIFLPLEMMFGILEKVSHWLVSPLLATGDMSMKGFDFIKPITKPVITGLETQLSVLGNTFGGVALIVLGIATIFVAITVMGKLMKSLMVGRAREILQNAIGRGPLHGIASGTVVTVLVQSSSTTTSLMVPLVGSGVLKVREIYPFTLGANIGTCITALLAATAVSGEFAVFALQIALVHLSFNLMATVLIYGIPFLRELPIKGAELISTWACKSKMVVVSYLLGVFVVIPGSILALTA | failed |
| ENIKTILLTVLVVISLVFTWGIWTFQPNFSEGSSSTESTVRVKHKIEKTTQKLSETVRPRDMFIHDDGAHYKVDDNALYEEIWSDLPHWDVKGIKDISDQYDKAGFKSWFYGIGGSEAKLDLQFSDTIPIDIFQTLFKWSNQSFEYSSFDHILIPFNETKANKKIYLVSYSKQLILEVTVESANYRNIMNDLKNRQSNMPAFSLFSIGSKKEFLLPNKPLTMDKKEFVTESIKTNTFKQALFSDPSIVREDSNYNNRNVLTDGISRLDVNLSQRQVQFQQRNLVQSTSYQTGELIKKSQKYLEDTGSWTDHYQFFNINDSQQLSFYIFMDQIPVINSTAKPFGATSAITVQWANDDILSYKRPNYSLGTNPIKTSETELMGGSEVKMLLSKQTAYDTDKIDQIFLAYQLVSTSTNDDPLVELEPVWAMKVNGKIVPITKDLLRKEGANSGVE | failed |
| TVVRYNPDNHADESFAARPALLWVHGMTDYFFHTEFAEFFHNAGFAVYGIDLRKCGRSYRPGQQWHYTSDLAHYFPDLTAAAEVISSTHPELVPVAHSTGGLIVPLWMSQMRTSNPAAIEKIPALVLNSPWLDMMYPPLFIKLITPMVRVLGKRSPTTIIPGGGLGAYGKSIHKNFYGEWDFDTTIKPVEGHKKSIGWLRAVMAGQAEIHHDHVNVGVDVLTLCSNKSWLKSEYTEDTNTSDAVLDVKHIQKWAPHLSSPSSRVDVEIIDNARHDIFLSRKPARDHASEVLNNWLQSK | failed |
| MQRPHVQEAEATAAPQQRTGASATFAELLKRVKAEGLLDLDPRYYIGRLALNTTLLLVGFAAFFALGDSWWQLVVALWMGLCGGQSAFMWHDAGHKAMFRSKKAASAVGYFHANLVNGVSFGWWVNHHNRHHSNPNHLDMDPDIGRRTAIFDIKQYPTRRGTQKFIVRYQSVLFFALLVTESFKMLKTAVLSIAQGKTKRPVLESFLLLARAAVYLTLVFTVLSPVLAVAFVLVQQAALGVYFGMIFAPNHKGMEVRDGDEETLDWLERQVLTSRNIRPSLFIDFLYGGLNYQVEHHLFPAMPQKNLARARELTRAYCAERGVPYHEVGFWASYREVASFLHEVSAPVRRGDVEEQIRRQAGQAA | failed |
| MISSKNGAAMISRPVFLSDRVDEVFSRKLDLSVSSSSSSSLLQQFNKTHEGDDDARLALAHQLYKGGDFKQALEHSNMVYQRNPLRTDNLLLIGAIYYQLQEYDMCIARNEEALRIQPQFAECYGNMANAWKEKGDTDRAIRYYLIAIELRPNFADAWSNLASAYMRKGRLSEATQCCQQALSLNPLLVDAHSNLGNLMKAQGLIHEAYSCYLEAVRIQPTFAIAWSNLAGLFMESGDLNRALQYYKEAVKLKPAFPDAYLNLGNVYKALGRPTEAIMCYQHALQMRPNSAMAFGNIASIYYEQGQLDLAIRHYKQALSRDPRFLEAYNNLGNALKDIGRVDEAVRCYNQCLALQPNHPQAMANLGNIYMEWNMMGPASSLFKATLAVTTGLSAPFNNLAIIYKQQGNYSDAISCYNEVLRIDPLAADALVNRGNTYKEIGRVTEAIQDYMHAINFRPTMAEAHANLASAYKDSGHVEAAITSYKQALLLRPDFPEATCNLLHTLQCVCCWEDRSKMFAEVESIIRRQINMSVLPSVQPFHAIAYPIDPILALEISRKYAAHCSIIASRFGLPPFTHPAGLPVKREGGFKRLRIGYVSSDFGNHPLSHLMGSVFGMHNRENVEVFCYALSANDNTEWRQRIQSEAEHFLDVSAMSSDAIAKIINQDKIQILINLNGYTKGARNEIFAMQPAPIQVSYMGFPGTTGATYIDYLVTDEFVSPLQYAHIYSEKLVHLPHCYFVNDYKQKNQDVLDPNSKPKRSDYGLPEDKFIFACFNQLYKMDPEIVNTWCNILKRVPNSALWLLRFPAAGEMRFRTYAAAQGVQPDQIIFTDVAMKSEHIRRSVLADVILDTPLCNGHTTGTDVLWAGVPMITLPLEKMATRVAGSLCLATGLGHGMIVNSLEEYEEKAVSLALNKPKLQALTKELRASRLTCPLFDTMRWVKNLERSYFKMWNLHCSGQQPQHFKVLENDLEFPHDR | failed |
| MSVKGFFFILVFFLVAIMGFLIYISETVVVKYLYIAEALMLLLMLYLILFYRKIVKPMNTIGSGMELLREQDFSSRLSHVGQQEADRVVNVFNRMMEQLKNERLRLREQNHFLDLMINASPMGVIIMTLDEEVSQLNPMAMKMMGVRPEEAEGRKLSEIDSPLALELAAIPNGETSTVRLNDSSIYKCTHSSFVDRGFQHPFYLMEGLTDEVMKAEKKAYEKVIRMIAHEVNNTTAGITSTLDTVEQALSESEGMEDICDVMRVCTERCFSMSHFITRFADVVKIPEPRFTPTNLNDLAFTCKRFMEGMCNDRNIRLQLICDESLDDVKLDASLFEQVLVNIIKNAAESIGQDGQIIIRTSLPTAIEVVDNGPGISKETEAKLFSPFFSTKPNGQGIGLIFIREVLSRHGCTFSLRTYADGLTRFRILFP | failed |
| MFRTALRNVFAHKARLLMTVLAVMLGVAFVSGTLVFADTLSNAFRNQSAKSYQDVAVAVTSYADSDNPKDEYALSDEVLDRISAVDGVAGVYGRVEGFAGVADPDGKLIGVGWSNKGSNFAPGKDGKDAAYTFTDGSGPVKDDQIALDEDSAGKGEYQVGDRVRVATNGPVKEYTLSGVFTTEDGAVNAGGSLVLFDTAVAQKQYLRPGYFESATVAAAPGADDARILKAVEPLLPDTAEAQTGRALADEQADQIEQGMGNLKQVLLGFAGIALFVGIFLISNTFTMLVAQRTKEIALMRAVGASRRQITRSVLAEAALVGLVASAVGFALGVGLAVGLRSGMAAFDMKMPAGPLVLSATPVVAAFAVGVLITVFAAWLPGRRAAKIPPVAAMNS | failed |
| HGEQSYSIGILTDITMTKMYEVLQYKVLEALILERPLDEVMTMLCHEVERIAPEVTASILQSIGQNHLSHLAGPSLPPAYTAVISSVPISPIAGSCGTAAFRKEAVEVQDIATDPLWDNYRHLILPHGLLACWSTPIISSQGQLLGTFAFYYRQIRSPSDFHRQLVKLIANLCSLAMERELSRKQIQHLAFYDS | failed |
| MELKDYYAIMGVKPTDDLKTIKTAYRRLARKYHPDVSKEPDAEARFKEVAEAWEVLSDEQRRAEYDQMWQHRNDPQFNRQFHHGDGQSFNAEDFDDIFSSIFGQHARQSRQRPATRGHDIEIEVAVFLEETLTEHKRTISYNLPVYNAFGMIEQEIPKTLNVKIPAGVGNGQRIRLKGQGTPGENGGPNGDLWLVIHIAPHPLFDIVGQDLEIVVPVSPWEAALGAKVTVPTLKESILLTIPPGSQAGQRLRVKGKGLVSKKQTGDLYAVLKIVMPPKPDENTAALWQQLADAQSSFDPRKDWGKA | failed |
| MQPLVSVLICAYNVEKYFAQSLAAVVNQTWRNLDILIVDDGSTDGTPAIARRFQEQDGRIRIISNPRNLGFIASLNIGLDELAKSGGGGEYIARTDADDIASPGWIEKIVGEMEKDRSIIAMGAWLEVLSEENNKSVLAAIARNGAIWDKPTRHEDIVAVFPFGNPIHNNTMIMRRSVIDGGLRFDPAYIHAEDYKFWYEAGKLGRLAYYPEALVKYRFHQDQTSSKYNLQQRRTAWKIKEEIRAGYWKAAGIAVGADCLNYGLLKSTAYALYEKALSGQDIGCLRLFLYEYFLSLEKYSLTDLLDFLTDRVMRKLFAAPQYRKILKKMLRPWKYRSYLEHHHHHH | failed |
| MIKVGVIGFGTVGQGVVESLVQLERGLRKEVTLEMLLVTNRRKHEHSEQYALVTDDWETFAARYYDVVFEAAGGIEPVYDYVRFFLKKGVPVVTANKKLVAERGEELERLAAENDTYLCYEAAVAGGIPILNAIKGTLATTSFTSVAGILNGTTNYILTGMIEQNRPFQDMLEEAQAKGYAEADPTDDIEGYDAWYKIRILARLCFGIWPNRDDISRSGLHDVLDWHVELGQSLGLTLKLDGRASVKNNTIIGSVAPAFFTNDHPFSTVYGVTNAVVLEGKAIERLLFTGPGAGKEATANSMVEDYLFHERYKGERQPMLIKEKEQNRIANVLVMVAAHEKKEAEKVVEHLPCQRINTFAADEGEAWWLKVYEDVIPFISKQLGLSLYRVYGAFEKQLVTTNMHHPSSIDETLEQKA | failed |
| MFSPEGPTRRELAVQALSSVERGYDLLAPKFDHTPYRTPDRVLDAVARGLEPLGPFAAGLDLCCGTGAGVEVLARVCQRDVTGVDFSAGMLEVARRRTLPPGPEVSWVRADARALPFGPAFDLVVSFGAFGHFLPRELPGLFGQVRSVLRPDGCFAFPVAAPPRPGSPGYWTLLGFDAAMRVRNALWRPPFVMYYRTFRLGAVGRELSRAGFRTDLHALPEFGRRPDGSPRARLVVARRLP | failed |
| MLSATSLKIIFAVSIFIVILIAGWYPFKKRLKDDKHIDFPIGETLATGVFLGAALLHMLPESNTLFKEMGYNYPFAFIITGVVFLIFLWFEHLGKELYHHHDAEHPAFAILAWAMLSVHSLMLGAALGFTQYNSMIIMLFLAIITHKWAESLAIAIQLNKSSMSTRKSMVFFFFFSLMTPLGIYFGWYFGHGVETNSLFDPILIAASAGTFLYLGTLHGLERCVMVERCCNLSDFSFVIIGFLLMASVAIYV | failed |
| MGSSHHHHHHSSGRENLYFQGMAATAREDGASGQERGQRGCEHYDRGCLLKAPCCDKLYTCRLCHDNNEDHQLDRFKVKEVQCINCEKIQHAQQTCEECSTLFGEYYCDICHLFDKDKKQYHCENCGICRIGPKEDFFHCLKCNLCLAMNLQGRHKCIENVSRQNCPICLEDIHTSRVVAHVLPCGHLLHRTCYEEMLKEGYRCPLCMHSALDMTRYWRQLDDEVAQTPMPSEYQNMTVDILCNDCNGRSTVQFHILGMKCKICESYNTAQAGGRRISLDQQ | failed |
| MNPILNLIISFIALLWAANHLVAGSSGLAIRFQLSPLMIGLTIVALGTSAPELFISIISSLKDKNDLAIGNAIGSNIANIGLILGIIILIKPTSFHFNKLKKVYPILIIVMLFAYSLILDGYLGTIDGCLFLIGCIAVLCYFIYLASHSPKRDLSVNEFRPAILSYRSTPSNLLSIAIGLLILPICSKYLVYNASEIAKWAGISEFTIGLTIIAIGSSLPELTTALVAAIKGEDSIAIGTIIGSNIYNLLLILALPGLLNPTKISSVVLWRDMPVMLSITLLLLFLNYYYQKKTSSWPGGILLLVYFCYMASLIINAHS | failed |
| MSRYDITGSEGEYEPGSDNKVLRNLPGITDPEEMNIVETDLLEDLYLQVFDNFPEELTFETLCQWHRAWLGNVYSWAGQSRTVDMSKPNIRFASPVQIPKLAEKFEARYLPRFAELPEMTDEELVAFLAEVHVEFILIHPFREGNGRISRLLLDVMAAKAGAEPLDYSLWDEHKDFYFKAIQAGRDGDYQHVERLIRDVLEAQQ | failed |
